Results reported in patent US20260201035A1 (published 2026).

Key:
Assay in all cases: fluorescence microscopy, LentiX cells co-expressing Lck (FIG. 38)
[1] = target: T1, GFP-tagged PD1, F223/Y248 PD1 (UniProt Q15116 25-288)
T1 construct: whole, on cells; In LentiX cells co-expressing Lck; not shown: GFP tag

[2] = target: T2, GFP-tagged PD1, F223/F248 PD1 (UniProt Q15116 25-288)
T2 construct: whole, on cells; In LentiX cells co-expressing Lck; not shown: GFP tag

[3] = target: T3, GFP-tagged PD1, wildtype PD1 (Y223/Y248) (UniProt Q15116 25-288, tyrosine phosphorylation by co-expressed Lck (implied, not measured in this experiment))
T3 construct: whole, on cells; In LentiX cells co-expressing Lck; not shown: GFP tag

[4] = target: T4, GFP-tagged PD1, Y223/F248 PD1 (UniProt Q15116 25-288)
T4 construct: whole, on cells; In LentiX cells co-expressing Lck; not shown: GFP tag

binding result [1]: binds
binding result [2]: binds
binding result [3]: binds
binding result [4]: binds
B1: mCherry-tagged Binder-NT7 (designed binder)
chain: ERFDSLTDLVEHYKKNPMVETLGTVLQLKQPLGGSGGGWFHGHLSGKEAEKLLTEKGKHGSFLVRESQSHPGDFVLSVRTGDDKGESNDGKSKVTHVMIRCQELKYDVGGGGGSQLQESGGGLVQAGGSLRLSCAASGYIFSRWYMGWYRQAPGKEREFVAGIDQGSITYYADSVKGRFTISRDNAKNTVYLQMNSLKPEDTAVYYCAAVAWAGYPWYYKHAYWGQGTQVTVSS
notes: Expressed in LentiX cells co-expressing Lck; not shown: mCherry tag
